Assay results reported in patent US20240368309A1 (Hoffmann-La Roche, published 2024).
Positions count from the first letter of the chain named.

B1: Monovalent EpCAM (GG07_VH x GG02_VL) (antibody, IgG1, V domains shown)
VH: QVQLVQSGSELKKPGASVKVSCKASGYTFTNYGMNWVRQAPGQGLEWMGWINTYTGESTYAQGFTGRFVFSLDTSVSTAYLQISSLKAEDTAVYFCARFARSGDYWGQGTLVTVSS
VL: DIVMTQSPDSLAVSLGERATINCKSSQSLLHSNGITYLYWYQQKPGQPPKLLIYQASTRESGVPDRFSGSGSGTDFTLTISSLQAEDVAVYYCAQNLEIPRTFGQGTKLEIK
notes: one-armed hu IgG1 PG-LALA, VH/VL-crossed Fab on Fc hole plus empty Fc knob; from supernatant
B2: Monovalent EpCAM (GG01_VH x GG06_VL) (antibody, IgG1, V domains shown)
VH: B1 VH with R101I, S102K
VL: DIQMTQSPSSLSASVGDRVTITCRASQSILHSQGITYLYWYQQKPGKAPKLLIYQMSNLQSGVPSRFSGSGSGTDFTLTISSLQPEDFATYYCAQNLEIPRTFGQGTKLEIK
notes: as for B1
B3: Monovalent EpCAM (GG01_VH x GG03_VL) (antibody, IgG1, V domains shown)
VH: B1 VH with R101I, S102K
VL: EIVLTQSPGTLSLSPGERATLSCRASQSLLHSNGITYLYWYQQKPGQAPRLLIYQMSNRATGIPDRFSGSGSGTDFTLTISRLEPEDFAVYYCAQNLEIPRTFGQGTKLEIK
notes: as for B1
B4: Monovalent EpCAM (GG01_VH x GG04_VL) (antibody, IgG1, V domains shown)
VH: B1 VH with R101I, S102K
VL: DIQMTQSPSSLSASVGDRVTITCRASQSISSYLYWYQQKPGKAPKLLIYQASSLQSGVPSRFSGSGSGTDFTLTISSLQPEDFATYYCAQNLEIPRTFGQGTKLEIK
notes: as for B1
B5: Monovalent EpCAM (GG02_VH x GG02_VL) (antibody, IgG1, V domains shown)
VH: QVQLVQSGAEVKKPGASVKVSCKASGYTFTNYGMNWVRQAPGQRLEWMGWINTYTGESTYSQKFQGRVTITRDTSASTAYMELSSLRSEDTAVYFCARFAIKGDYWGQGTLVTVSS
VL: B1 VL
notes: as for B1
B6: Monovalent EpCAM (GG04_VH x GG02_VL) (antibody, IgG1, V domains shown)
VH: EVQLVQSGAEVKKPGESLKISCKGSGYSFTNYGMNWVRQMPGKGLEWMGWINTYTGESTYSPSFQGQVTISADKSISTAYLQWSSLKASDTAMYFCARFAIKGDYWGQGTLVTVSS
VL: B1 VL
notes: as for B1
B7: Monovalent EpCAM (GG01_VH x GG05_VL) (antibody, IgG1, V domains shown)
VH: B1 VH with R101I, S102K
VL: DIVMTQSPLSLPVTPGEPASISCRSSQGINNYLYWYLQKPGQSPQLLIYQMSNRASGVPDRFSGSGSGTDFTLKISRVEAEDVGVYYCAQNLEIPRTFGQGTKLEIK
notes: as for B1
B8: Monovalent EpCAM (GG06_VH x GG04_VL) (antibody, IgG1, V domains shown)
VH: B1 VH with E57Q, R101I, S102K
VL: B4 VL
notes: as for B1
B9: Monovalent EpCAM (GG07_VH x GG03_VL) (antibody, IgG1, V domains shown)
VH: B1 VH
VL: B3 VL
notes: as for B1
B10: Monovalent EpCAM (GG06_VH x GG05_VL) (antibody, IgG1, V domains shown)
VH: B1 VH with E57Q, R101I, S102K
VL: B7 VL
notes: as for B1
B11: Monovalent EpCAM (GG06_VH x GG06_VL) (antibody, IgG1, V domains shown)
VH: B1 VH with E57Q, R101I, S102K
VL: B2 VL
notes: as for B1
B12: Monovalent EpCAM (GG06_VH x GG03_VL) (antibody, IgG1, V domains shown)
VH: B1 VH with E57Q, R101I, S102K
VL: B3 VL
notes: as for B1
B13: Monovalent EpCAM (GG07_VH x GG05_VL) (antibody, IgG1, V domains shown)
VH: B1 VH
VL: B7 VL
notes: as for B1
B14: Monovalent EpCAM (GG03_VH x GG02_VL) (antibody, IgG1, V domains shown)
VH: B5 VH with R72L
VL: B1 VL
notes: as for B1
B15: Monovalent EpCAM (GG06_VH x GG07_VL) (antibody, IgG1, V domains shown)
VH: B1 VH with E57Q, R101I, S102K
VL: EIVLTQSPGTLSLSPGERATLSCRASQSINNYLYWYQQKPGQAPRLLIYQMSNRATGIPDRFSGSGSGTDFTLTISRLEPEDFAVYYCAQNLEIPRTFGQGTKLEIK
notes: as for B1
B16: Monovalent EpCAM (GG07_VH x GG06_VL) (antibody, IgG1, V domains shown)
VH: B1 VH
VL: B2 VL
notes: as for B1
B17: Monovalent EpCAM (GG05_VH x GG02_VL) (antibody, IgG1, V domains shown)
VH: B6 VH with N31Q
VL: B1 VL
notes: as for B1
B18: Monovalent EpCAM (GG04_VH x GG01_VL) (antibody, IgG1, V domains shown)
VH: B6 VH
VL: DIVMTQSPLSLPVTPGEPASISCRSSQSLLHSNGITYLYWYLQKPGQSPQLLIYQMSNRASGVPDRFSGSGSGTDFTLKISRVEAEDVGVYYCAQNLEIPRTFGQGTKLEIK
notes: as for B1
B19: Monovalent EpCAM (GG04_VH x GG03_VL) (antibody, IgG1, V domains shown)
VH: B6 VH
VL: B3 VL
notes: as for B1
B20: Monovalent EpCAM (GG04_VH x GG06_VL) (antibody, IgG1, V domains shown)
VH: B6 VH
VL: B2 VL
notes: as for B1
B21: Monovalent EpCAM (GG04_VH x GG04_VL) (antibody, IgG1, V domains shown)
VH: B6 VH
VL: B4 VL
notes: as for B1
B22: Monovalent EpCAM (GG05_VH x GG07_VL) (antibody, IgG1, V domains shown)
VH: B6 VH with N31Q
VL: B15 VL
notes: as for B1
B23: Monovalent EpCAM (GG05_VH x GG06_VL) (antibody, IgG1, V domains shown)
VH: B6 VH with N31Q
VL: B2 VL
notes: as for B1
B24: Monovalent EpCAM (GG05_VH x GG04_VL) (antibody, IgG1, V domains shown)
VH: B6 VH with N31Q
VL: B4 VL
notes: as for B1
B25: Monovalent EpCAM (GG05_VH x GG01_VL) (antibody, IgG1, V domains shown)
VH: B6 VH with N31Q
VL: B18 VL
notes: as for B1
B26: Monovalent EpCAM (GG05_VH x GG03_VL) (antibody, IgG1, V domains shown)
VH: B6 VH with N31Q
VL: B3 VL
notes: as for B1
B27: Monovalent EpCAM (GG02_VH x GG05_VL) (antibody, IgG1, V domains shown)
VH: B5 VH
VL: B7 VL
notes: as for B1
B28: Monovalent EpCAM (GG03_VH x GG04_VL) (antibody, IgG1, V domains shown)
VH: B5 VH with R72L
VL: B4 VL
notes: as for B1
B29: Monovalent EpCAM (GG03_VH x GG01_VL) (antibody, IgG1, V domains shown)
VH: B5 VH with R72L
VL: B18 VL
notes: as for B1
B30: Monovalent EpCAM (GG02_VH x GG07_VL) (antibody, IgG1, V domains shown)
VH: B5 VH
VL: B15 VL
notes: as for B1
B31: Monovalent EpCAM (GG04_VH x GG05_VL) (antibody, IgG1, V domains shown)
VH: B6 VH
VL: B7 VL
notes: as for B1
B32: Monovalent EpCAM (GG03_VH x GG07_VL) (antibody, IgG1, V domains shown)
VH: B5 VH with R72L
VL: B15 VL
notes: as for B1
B33: Monovalent EpCAM (GG03_VH x GG05_VL) (antibody, IgG1, V domains shown)
VH: B5 VH with R72L
VL: B7 VL
notes: as for B1
B34: Monovalent EpCAM (GG05_VH x GG05_VL) (antibody, IgG1, V domains shown)
VH: B6 VH with N31Q
VL: B7 VL
notes: as for B1

Target: T1, biotinylated monovalent EpCAM-Fc (human EpCAM ECD-Fc knob avi-his paired with Fc hole) (human, UniProt P01857 104-328 = IgG part, biotin on the avi tag (BirA co-expression))
T1 construct: also called monovalent EpCAM-Fc construct; huEPCAM-Fc-knob (avi-His) + Fc hole (wt)
Test: SPR ProteOn XPR36 off-rate, biotinylated monovalent EpCAM-Fc on NLC chip, 50 nM supernatant

Row | koff [s⁻¹] | Binder
1 | 0.00528 | B1
2 | 0.00412 | B2
3 | 0.00292 | B3
4 | 0.00272 | B4
5 | 0.00227 | B5
6 | 0.00943 | B6
7 | 0.062 | B7
8 | 0.00434 | B8
9 | 0.00285 | B9
10 | 0.00665 | B10
11 | 0.00303 | B11
12 | 0.00286 | B12
13 | 0.00491 | B13
14 | 0.00301 | B14
15 | 0.00254 | B15
16 | 0.00142 | B16
17 | 0.00783 | B17

Row | koff [s⁻¹] | Binder
18 | 0.00662 | B18
19 | 0.00538 | B19
20 | 0.00581 | B20
21 | 0.0069 | B21
22 | 0.00302 | B22
23 | 0.00317 | B23
24 | 0.00536 | B24
25 | 0.00545 | B25
26 | 4.35e-05 | B26
27 | 0.00361 | B27
28 | 0.00247 | B28
29 | 0.00255 | B29
30 | 0.00303 | B30
31 | 0.0123 | B31
32 | 0.00366 | B32
33 | 0.00483 | B33
34 | 0.0127 | B34
